Settings in all cases: both partners purified
Assay [1] concerns the target HPV18E6 PBM peptide (C-terminal sequence of the human papillomavirus type 18 E6 protein) (human papillomavirus type 18). Put plainly: NMR titration; unlabeled peptide added stepwise to 15N-labeled PTPN3-PDZ at 95 or 149 μM; 1H,15N HSQC chemical shift perturbations; 15 °C; 50 mM Tris/HCl pH 7.5, 150 mM NaCl, 0.5 mM TCEP; KD from 8 to 14 fitted curves.
The target in assay [2] is T1, PDZ domain of the human protein tyrosine phosphatase non-receptor type 3 (PTPN3-PDZ) (human, UniProt P26045-1 504-913, Start 504 is printed. End 597 comes from the 6HKS entity and fits the printed 94 residues (89 non-Pro). GST removed by TEV; any residual tag residues left out.). The experiment in a line: AUC; sedimentation velocity, PTPN3-PDZ at 70 μM with HBVc PBM peptide, 20 °C, 42000 rpm.

The target of assay [3] is PTPN3-PDZ_(Next), PDZ domain of human PTPN3 extended at the N-terminus by 15 residues of its wild-type … (human, UniProt P26045-1 489-913, Start 489 is 504 minus the 15 residues printed. End 597 comes from the 6HKS entity (residues 6-114); its GAMGS tag remnant is left out.). Put plainly: AUC; sedimentation velocity, PTPN3-PDZ_(Next) at 70 μM with PBM peptide, 20 °C, 42000 rpm.

The target in assay [4] is T1, PDZ domain of the human protein …. The experiment in a line: NMR titration; unlabeled peptide added stepwise to 15N-labeled PTPN3-PDZ at 95 or 149 μM; 1H,15N HSQC chemical shift perturbations; 15 °C; 50 mM Tris/HCl pH 7.5, 150 mM NaCl, 0.5 mM TCEP; KD from 8 to 14 fitted curves.

The results in this text go back to PMC6520365, “Structural and functional characterization of the PDZ domain of the human phosphatase PTPN3 and its interaction with the human papillomavirus E6 oncoprotein” (Scientific Reports, 2019).

Chain of PTPN3-PDZ_(Next), PDZ domain of human PTPN3 extended at the N-terminus by 15 residues of its wild-type … (P26045 489-913): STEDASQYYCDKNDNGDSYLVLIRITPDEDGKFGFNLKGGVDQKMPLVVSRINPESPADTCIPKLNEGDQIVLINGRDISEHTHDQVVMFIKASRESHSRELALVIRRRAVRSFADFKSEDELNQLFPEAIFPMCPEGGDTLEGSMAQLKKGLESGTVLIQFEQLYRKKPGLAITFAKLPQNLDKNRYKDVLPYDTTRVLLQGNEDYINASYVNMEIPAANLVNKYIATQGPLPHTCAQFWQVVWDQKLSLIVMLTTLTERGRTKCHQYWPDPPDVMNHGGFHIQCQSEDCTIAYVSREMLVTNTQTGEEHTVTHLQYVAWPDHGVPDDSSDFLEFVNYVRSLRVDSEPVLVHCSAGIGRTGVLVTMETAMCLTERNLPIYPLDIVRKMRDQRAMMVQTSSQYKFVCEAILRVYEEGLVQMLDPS

B1: PDZ domain of the human protein tyrosine phosphatase non-receptor type 3 (PTPN3-PDZ) (domain or fragment)
chain: GDSYLVLIRITPDEDGKFGFNLKGGVDQKMPLVVSRINPESPADTCIPKLNEGDQIVLINGRDISEHTHDQVVMFIKASRESHSRELALVIRRR
Consider B1, for which the Kd in assay [1] was determined as 37 µM.

B2: HBVc PBM peptide (C-terminal sequence of the hepatitis B virus core protein) (peptide)
peptide: RRRRSQSRESQC
notes: also called HBV Core PBM; source: synthetic peptide (Fmoc solid phase, Proteogenix)
For the molecule B2, the “stoichiometry N” value in assay [2] and in assay [3] was 1 throughout. The Kd in assay [4] was 29 µM.

B3: p38γ PBM peptide (C-terminal sequence of the MAP kinase p38γ) (peptide)
peptide: SWARVSKETPL
notes: also called MAPK12 PBM; source: synthetic peptide (Fmoc solid phase, Proteogenix)
Regarding B3, the Kd in assay [4] turned out to be 26 µM.

B4: HPV16E6 PBM peptide (C-terminal sequence of the human papillomavirus type 16 E6 protein) (peptide)
peptide: RSSRTRRETQL
notes: Only the last seven residues (TRRETQL) are seen in the crystal; also called PBM of HPV16 E6; source: synthetic peptide (Fmoc solid phase, Proteogenix)
For the molecule B4, the “stoichiometry N” value in assay [3] was 1. The dissociation constant Kd in assay [4] was 53 µM.
